Measured values published in patent US20260209352A1 (Adimab, published 2026).

Experiments:
[1] = target: T1, Human CD3 on Human CD3+ Jurkat cells (human, UniProt P07766 23-207); experiment: cell binding hCD3, fold over background
T1 construct: whole, on cells; CD3 complex on cells; also called hCD3

[2] = target: Human CD3εδ-Fc (human) (UniProt P04234); experiment: Biacore SPR, monovalent KD, biotinylated human CD3εδ-Fc
[3] = target: Human CD3εδ-Fc (human) (UniProt P04234); experiment: KD of scFv-Fc or IgG on human CD3εδ-Fc; instrument not given
[4] = target: T2, Cynomolgus CD3 on Cyno CD3+ Jurkat cells (cynomolgus, UniProt Q95LI5 22-198); experiment: cell binding cCD3, fold over background
T2 construct: whole, on cells; CD3 on cells; also called cCD3
T2 sequence (Q95LI5 22-198): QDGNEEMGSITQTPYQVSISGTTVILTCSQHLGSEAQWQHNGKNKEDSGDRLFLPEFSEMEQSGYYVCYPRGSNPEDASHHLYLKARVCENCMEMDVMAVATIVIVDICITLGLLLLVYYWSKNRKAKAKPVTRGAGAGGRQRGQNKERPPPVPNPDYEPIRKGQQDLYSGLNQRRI

[5] = target: Cyno CD3εδ-Fc (cynomolgus) (UniProt Q95LI8); experiment: KD of scFv-Fc or IgG on cyno CD3εδ-Fc; instrument not given
Sequence of Cyno CD3εδ-Fc (cynomolgus) (chain, as listed by the source mutant, chain 1 of 2): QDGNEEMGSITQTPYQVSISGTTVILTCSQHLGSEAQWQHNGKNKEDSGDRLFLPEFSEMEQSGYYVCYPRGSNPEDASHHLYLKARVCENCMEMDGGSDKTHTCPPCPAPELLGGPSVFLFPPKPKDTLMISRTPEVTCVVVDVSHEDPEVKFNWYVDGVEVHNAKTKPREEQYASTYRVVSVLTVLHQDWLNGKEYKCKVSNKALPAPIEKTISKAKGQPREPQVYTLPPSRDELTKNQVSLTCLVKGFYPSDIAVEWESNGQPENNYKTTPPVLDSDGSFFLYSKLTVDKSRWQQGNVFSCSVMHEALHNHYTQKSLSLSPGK
Sequence of Cyno CD3εδ-Fc (cynomolgus) (Q95LI8 22-105, stated change not applied, chain 2 of 2): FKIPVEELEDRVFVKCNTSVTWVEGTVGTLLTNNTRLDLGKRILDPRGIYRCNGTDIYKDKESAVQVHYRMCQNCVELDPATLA

[6] = target: T2, Cynomolgus CD3 on Cyno CD3+ Jurkat cells; experiment: cell binding, cyno CD3+ Jurkat cells
[7] = target: T1, Human CD3 on Human CD3+ Jurkat cells; experiment: cell binding, human CD3+ Jurkat cells
[8] = target: Human CD3εδ-Fc (human) (UniProt P04234); experiment: KD of scFv-Fc or IgG on human CD3εδ-Fc; instrument not given; second row for this clone

Sequence of Human CD3εδ-Fc (human) (chain, as listed by the source mutant, chain 1 of 2): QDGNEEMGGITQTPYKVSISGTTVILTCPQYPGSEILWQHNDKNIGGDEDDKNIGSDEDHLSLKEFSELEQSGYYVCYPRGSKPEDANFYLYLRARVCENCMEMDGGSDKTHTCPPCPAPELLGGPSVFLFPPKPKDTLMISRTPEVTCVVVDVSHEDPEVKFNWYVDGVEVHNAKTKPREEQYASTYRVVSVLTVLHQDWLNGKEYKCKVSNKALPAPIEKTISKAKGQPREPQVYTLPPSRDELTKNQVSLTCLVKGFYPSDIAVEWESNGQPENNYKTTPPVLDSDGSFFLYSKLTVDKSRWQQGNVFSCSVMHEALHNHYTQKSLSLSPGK
Sequence of Human CD3εδ-Fc (human) (P04234 22-105, stated change not applied, chain 2 of 2): as the sequence (Q95LI8 22-105, stated change not applied, chain 2 of 2) above, with V5I, K15N, V20I, T32S, N33D, N34I, A64T, N74S, L83V counted along it
T1 sequence (P07766 23-207): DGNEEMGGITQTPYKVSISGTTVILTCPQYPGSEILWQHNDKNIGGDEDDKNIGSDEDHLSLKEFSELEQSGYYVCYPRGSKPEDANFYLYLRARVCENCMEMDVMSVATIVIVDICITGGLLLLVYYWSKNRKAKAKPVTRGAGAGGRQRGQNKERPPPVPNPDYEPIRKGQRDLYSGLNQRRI

| Cell Binding hCD3 (FOB) [1] [FOB] | Kd [2] [nM] | Kd [3] [nM] | Cell Binding cCD3 (FOB) [4] [FOB] | Kd [5] [nM] | Cell Binding Fold Over Background (FOB) [6] [FOB] | Cell Binding Fold Over Background (FOB) [7] [FOB] | Kd [8] [nM] | Binder |
| --- | --- | --- | --- | --- | --- | --- | --- | --- |
| 36 | 0.47 | 0.2 | 122 | 2 | 16 | 14 |  | ADI-42594 (antibody, V domains shown, also called Ab1) VH: QVQLVQSGAEVKKPGASVKVSCKASGFNIKDYYMHWVRQAPGQRLEWIGWIDLENANTVYDAKFQGRVTITRDTSASTAYMELSSLRSEDTAVYYCARDAYGRYFYDVWGQGTLVTVSS VL: DIVMTQSPDSLAVSLGERATINCKSSQSLLNARTGKNYLAWYQQKPGQPPKLLIYWASTRESGVPDRFSGSGSGTDFTLTISSLQAEDVAVYYCKQSYFRRTFGGGTKVEIK |
| 22 | 0.12 | 0.92 | 91 |  | 30 | 17 |  | ADI-46378 (antibody, V domains shown, also called Ab40) VH: QVQLVQSGAEVKKPGASVKVSCKASGFNIKDYYMHWVRQAPGQRLEWIGWIDLENANTVYDAKFQGRVTITRDTSASAAYMELSSLRSEDTAVYYCARDAYGRYFYDVWGQGTLVTVSS VL: DIVMTQSPDSLAVSLGERATINCKSSQSLLNARTRKNYLAWYQQKPGRPPKLLIYWASTRESGVPDRFSGSGSGTDFTLTISSLQAEDVAVYYCVQSYFRRTFGGGTKVEIK |
| 19 | 0.12 | 0.13 | 112 | 1.7 | 30 | 18 |  | ADI-45959 (antibody, V domains shown, also called Ab13) VH: QVQLVQSGAEVKKPGASVKVSCKASGFNIKDYYMHWVRQAPGQRLEWIGWIDLENANTVYDAKFQGRVTITRDTSASTAYMELSSLRSEDTAVYYCARDAYGRYFYDVWGQGTLVTVSS VL: DIVMSQSPDSLAVSLGERATINCKSSQSLLNARTGKNYLAWYQQKPGQPPKLLIYWASTRSSGVPDRFSGSGSGTDFTLTISSLQAEDVAVYYCVQSYFRRTFGGGTKVEIK |
| 29 |  | 0.16 | 46 | 2.4 |  |  | 1.1 | ADI-42596 (antibody, V domains shown, also called Ab2) VH: QVQLVQSGAEVKKPGASVKVSCKASGFNIKDYYMHWVRQAPGQRLEWIGWIDLENANTVYDAKFQGRVTITRDTSASTAYMELSSLRSEDTAVYYCARDAYGRYFYDVWGQGTLVTVSS VL: DIVMTQSPDSLAVSLGERATINCKSSQSLLNARTRKNYLAWYQQKPGQPPKLLIYWASTRESGVPDRFSGSGSGTDFTLTISSLQAEDVAVYYCKQSYFRRTFGGGTKVEIK |
| 86 | 0.21 | 0.067 | 142 | 1.4 | 17 | 10 |  | ADI-45975 (antibody, V domains shown, also called Ab11) VH: QVQLVQSGAEVKKPGASVKVSCKASGFNIKDYYMHWVRQAPGQRLEWIGWIDLENANTVYDAKFQGRVTITRDTSASTAYMELSSLRSEDTAVYYCARDAYGQYFYDVWGQGTLVTVSS VL: DIVMTQSPDSLAVSLGERATINCKSSQSLLNARTRKNYLAWYQQKPGQPPKLLIYWASTRESGVPDRFSGSGSGTDFTLTISSLQAEDVAVYYCKQSYFRRTFGGGTKVEIK |
